{
  "source": "paper PMC4197441",
  "about": "“Phosphoinositide 3-kinase p85beta regulates invadopodium formation” (Biology Open, 2014)",
  "binders": {"B1": {"name": "recombinant HA-tagged p85β (regulatory subunit of phosphoinositide 3-kinase) (natural protein)", "chain": "not shown", "notes": "p85β regulatory subunit of PI3K, murine cDNA (from pT7/T3-U19) subcloned into pSG5; the p85β ATG codon was replaced with a proline residue and the ATG of the HA tag kept; The only change is the first methionine to proline at the junction with the N-terminal HA tag; also called rHAp85β; HA-p85β; source: NIH3T3, transfected (pSG5), in cell extract; not shown: HA, N-terminal, kept"}},
  "target": "T1, focal adhesion kinase (mouse (endogenous in NIH3T3), UniProt P34152 1-1052)",
  "T1 construct": "focal adhesion kinase (FAK), endogenous in NIH3T3 fibroblasts, immunoprecipitated with anti-FAK Ab (BD Bioscience); also called FAK; Ptk2; source: endogenous, NIH3T3 cell extract",
  "T1 sequence (P34152 whole entry)": "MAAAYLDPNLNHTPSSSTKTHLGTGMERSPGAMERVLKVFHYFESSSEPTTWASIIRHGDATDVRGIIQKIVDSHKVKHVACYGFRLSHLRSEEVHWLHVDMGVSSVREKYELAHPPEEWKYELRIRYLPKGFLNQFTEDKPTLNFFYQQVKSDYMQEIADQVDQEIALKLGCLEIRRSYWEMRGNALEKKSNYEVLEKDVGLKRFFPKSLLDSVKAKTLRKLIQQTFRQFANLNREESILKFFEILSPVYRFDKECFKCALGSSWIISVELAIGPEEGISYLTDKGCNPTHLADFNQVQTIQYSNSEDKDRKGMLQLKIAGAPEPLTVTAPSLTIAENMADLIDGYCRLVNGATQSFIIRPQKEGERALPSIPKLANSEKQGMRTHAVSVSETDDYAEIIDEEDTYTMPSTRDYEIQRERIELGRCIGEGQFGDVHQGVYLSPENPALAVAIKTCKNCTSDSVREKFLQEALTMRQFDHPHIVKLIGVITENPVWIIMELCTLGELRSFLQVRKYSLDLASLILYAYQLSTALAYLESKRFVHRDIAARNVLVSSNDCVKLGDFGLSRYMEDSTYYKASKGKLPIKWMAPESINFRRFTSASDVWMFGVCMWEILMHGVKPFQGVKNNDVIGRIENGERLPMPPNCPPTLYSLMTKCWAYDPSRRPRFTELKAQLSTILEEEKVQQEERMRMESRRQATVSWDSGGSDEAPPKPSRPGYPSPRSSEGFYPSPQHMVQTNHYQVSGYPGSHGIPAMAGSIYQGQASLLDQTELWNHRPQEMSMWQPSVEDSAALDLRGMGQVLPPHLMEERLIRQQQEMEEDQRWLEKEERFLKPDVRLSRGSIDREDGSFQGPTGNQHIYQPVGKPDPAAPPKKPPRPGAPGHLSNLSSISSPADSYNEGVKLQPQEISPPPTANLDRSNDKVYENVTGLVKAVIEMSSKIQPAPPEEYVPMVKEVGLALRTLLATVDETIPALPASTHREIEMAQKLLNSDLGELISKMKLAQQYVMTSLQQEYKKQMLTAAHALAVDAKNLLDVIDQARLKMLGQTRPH",
  "experiment": "co-IP; NIH3T3 cell extracts (500 µg, TX-100 lysis buffer) immunoprecipitated with anti-FAK Ab, WB with anti-HA Ab; cells without serum 16 h, then 10% serum (in suspension), FN, or FN plus serum for 20 or 60 min",
  "conditions": "partners not purified",
  "data": [
    {"binder": "B1", "values": [
      {"measurement": "fold amount co-precipitated with FAK relative to rHAp85α", "value": 5, "unit": "fold"}
    ]}
  ]
}
